Measurements taken from paper PMC3652857, “A Cryptic Targeting Signal Creates a Mitochondrial FEN1 Isoform with Tailed R-Loop Binding Properties”.

Key:
FENMIT [1] = biological target: T1, FENMIT (human, UniProt P39748-2 1-316); experiment: EMSA; 1-50 nM FENMIT; 25 mM Tris pH 8.0, 1 mM DTT, 0.1 mg/ml BSA, 6% glycerol; 0.2 nM 32P substrate; 1 h on ice; 10% native PAGE in tris-borate; conditions: protein: recombinant; tags: His; label: 5'-32P; single strand
FENMIT [2] = biological target: T1, FENMIT; experiment: competition; 25 nM FENMIT; cold RNA44 0-5 nM; 25 mM Tris pH 8.0, 1 mM DTT, 0.1 mg/ml BSA, 6% glycerol; 0.2 nM 32P substrate; 1 h on ice; 10% native PAGE in tris-borate; conditions: protein: recombinant; tags: His; label: 5'-32P on RNA44; equilibrating full 5' RNA flap, 1 nt 3' DNA flap
FENMIT [3] = biological target: T1, FENMIT; experiment: EMSA; 25 mM Tris pH 8.0, 1 mM DTT, 0.1 mg/ml BSA, 6% glycerol; 0.2 nM 32P substrate; 1 h on ice; 10% native PAGE in tris-borate; conditions: protein: recombinant, tags: His
FENMIT [4] = biological target: T1, FENMIT; experiment: EMSA; 1-50 nM FENMIT; equal to short 3' flap; 25 mM Tris pH 8.0, 1 mM DTT, 0.1 mg/ml BSA, 6% glycerol; 0.2 nM 32P substrate; 1 h on ice; 10% native PAGE in tris-borate; conditions: protein: recombinant; tags: His; label: 5'-32P on RNA44; 5' RNA flap with 20 nt 3' DNA flap
FEN1 D181A = FEN1 D181A (human, UniProt P39748 1-380, D181A); experiment: EMSA; 25 mM Tris pH 8.0, 1 mM DTT, 0.1 mg/ml BSA, 6% glycerol; 0.2 nM 32P substrate; 1 h on ice; 10% native PAGE in tris-borate; conditions: protein: recombinant; tags: His; label: 5'-32P on 19DNA; equilibrating double flap: 19 nt 5' DNA flap, 1 nt 3' flap
FEN1 D181A, sequence (P39748 whole entry D181A): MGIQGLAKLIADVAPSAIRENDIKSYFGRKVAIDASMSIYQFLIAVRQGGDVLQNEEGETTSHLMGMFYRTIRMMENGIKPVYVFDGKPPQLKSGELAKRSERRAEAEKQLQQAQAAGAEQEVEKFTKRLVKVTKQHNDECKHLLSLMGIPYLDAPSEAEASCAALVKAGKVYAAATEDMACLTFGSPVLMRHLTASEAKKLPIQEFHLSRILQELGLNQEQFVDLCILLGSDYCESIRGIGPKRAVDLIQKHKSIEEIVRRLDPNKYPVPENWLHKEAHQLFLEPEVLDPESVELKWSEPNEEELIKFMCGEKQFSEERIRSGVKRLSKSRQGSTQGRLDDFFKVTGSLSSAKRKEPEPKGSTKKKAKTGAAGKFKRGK

FEN1 (FEN1-1.His) = FEN1 (FEN1-1.His) (human, UniProt P39748 1-380); experiment: as above; conditions: protein: recombinant; tags: His; label: 5'-32P on 19DNA; equilibrating double flap: 19 nt 5' DNA flap, 1 nt 3' flap
FEN1 (FEN1-1.His), sequence (P39748 whole entry): as the sequence (P39748 whole entry D181A) above, with A181D counted along it

T1 sequence (P39748 65-380): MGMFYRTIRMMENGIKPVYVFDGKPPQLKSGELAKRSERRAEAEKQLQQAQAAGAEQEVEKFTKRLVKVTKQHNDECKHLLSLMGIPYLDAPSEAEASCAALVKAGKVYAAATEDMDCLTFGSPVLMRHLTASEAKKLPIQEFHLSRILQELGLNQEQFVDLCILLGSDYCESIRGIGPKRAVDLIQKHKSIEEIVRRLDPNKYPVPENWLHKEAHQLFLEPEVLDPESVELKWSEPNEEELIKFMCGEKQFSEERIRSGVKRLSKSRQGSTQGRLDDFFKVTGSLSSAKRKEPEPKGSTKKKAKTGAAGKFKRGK

UCAACGUGGGCAAAGAAUGUCCUACGUCCGAUACGGAUAAUCGC (ssRNA) [RNA44 ssRNA] was tested, and the binding signal (FENMIT [1]) was 3 fold lower affinity than RNA flap substrates.

B1: T2:U2:RNA44* 5' RNA flap (mixed)
DNA 1: GCGATTATCCGTATCGGACGTAGGAAGCCTGCCATTTGATGGTC
DNA 2: GACCATCAAATGGCAGGCTG
RNA: UCAACGUGGGCAAAGAAUGUCCUACGUCCGAUACGGAUAAUCGC
For B1, the binding signal (FENMIT [2]) was 3 fold more cold RNA44 for half competition than labeled ssRNA needs.

B2: T6:D1:RNA44* R-loop (mixed)
DNA 1: CTGCGTCGGCTTAAGATGGTGCGATTATCCGTATCGGACGTAGGACATTCTTTGCCCACGTTGATGGGTAGATAGCCTAACCGG
DNA 2: CCGGTTAGGCTATCTACCCATAAGTTTATTCCCTGCTCTTAGCAGATGGAGTCTGTGAACTGCAATCAATACCATCTTAAGCCGACGCAG
RNA: B1 RNA
B2: binds (FENMIT [3]; label: 5'-32P on RNA44, R-loop without RNA flap).

B3: U3:T2:RNA44* 5' RNA flap with 20 nt 3' flap (mixed)
DNA 1: B1 DNA 1
DNA 2: GACCATCAAATGGCAGGCTGAACGAACAAAGCGAAAGCG
RNA: B1 RNA
B3: binds (FENMIT [4]).

B4: T1:U1:19DNA* equilibrating 5' DNA flap (structured_DNA)
DNA 1: GTCGACCTGCAGCCCAAGCTTGCGTTGCTG
DNA 2: CAGCAACGCAAGCTTGC
DNA 3: ATGTGGAAAATCTCTAGCAGGCTGCAGGTCGAC
B4: binds (FEN1 D181A); no binding (FENMIT [3]; label: 5'-32P on 19DNA, equilibrating double flap: 19 nt 5' DNA flap, 1 nt 3' flap); binds (FEN1 (FEN1-1.His)).
